Key:
Assay type in all cases: cell-based, mouse
[1] = tested on: peritoneal macrophages (PM); assay: In vitro BrdU incorporation by peritoneal macrophages after stimulation with GM-CSF; details: cultured PM, 3 days after stimulation, 18 h BrdU pulse
Description: Peritoneal macrophages were collected by peritoneal washout using 10 mL PBS containing 2 mM EDTA (Sigma). Red cell lysis was performed (RBC Lysis Buffer, Invitrogen) and cells were filtered through a 70 um mesh before further processing. Medium changes occurred every 3-4 days.
(§1) Cell cycle analysis. In vitro proliferation of macrophages was assessed using the Cell Proliferation ELISA (BrdU, colorimetric; Roche) according to manufacturer's instructions. In brief, 10-20 thousand freshly isolated macrophages were plated per 96 well in a tissue culture dish in complete medium (DMEM, 10% FCS, 1% Pen/Strep, 1% Pyruvate, 1% Glutamate). After macrophages had attached to the plastic, plating medium was replaced with complete medium containing the respective cytokine at indicated concentration. On day 2 after stimulation, BrdU was added to the culture and BrdU incorporation was assessed on day 3.

[2] = tested on: alveolar macrophages (AM); assay: Long-term liquid culture of alveolar macrophages in the presence of GM-CSF
Description: For culture of alveolar macrophages, alveolar lavages were pooled from ten 1 mL 37° C. BAL washes (PBS, 2 mM EDTA, 2% FBS (GE Healthcare) per mouse and stored on ice. RBC lysis was then performed at room temperature (RT) for 3 minutes (RBC Lysis Buffer, Invitrogen). Cells were plated at a density of at least 1.1 million cells per 10 cm bacterial petri dish (Greiner Bio-One) or NUNC non treated 6 well plates (>0.45-5*10^6 per well) in complete medium (RPMI, 10% FCS, 1% Pen/Strep, 1% Pyruvate, 1% Glutamate) supplemented with 1-2% GM-CSF supernatant from J558L cells transfected with murine GM-CSF cDNA. Medium was partially changed every two-three days. Cells were replated only at confluency and only at least one day after medium change. To avoid cell death during detachment, cells were detached with Accutase (StemCells Technologies) and 2 mM EGTA for 15 minutes at 37° C. without agitation or pipetting and careful monitored under the microscope for the detachment process. Only after a large number of cells started to round up and float, cells were carefully detached with a p1000 pipettte.
Cell Culture. […]

[3] = tested on: alveolar macrophages (AM); assay: In vitro BrdU incorporation by alveolar macrophages after stimulation with GM-CSF; details: cultured AM, 3 days after stimulation, 18 h BrdU pulse
Description: as §1

B1: GM-CSF: cytokine growth factor for leukocytes; used as supernatant from J558L cells transfected with murine GM-CSF cDNA (protein, UniProt P01587 18-141, looked up)
Granulocyte-macrophage …: APTRSPITVTRPWKHVEAIKEALNLLDDMPVTLNEEVEVVSNEFSFKKLTCVQTRLKIFEQGLRGNFTKLKGALNMTASYYQTYCPPTPETDCETQVTTYADFIDSLKTFLTDIPFECKKPGQK
BrdU incorporation in response to GM-CSF [1]: not PM incorprorated BrdU
duration of expansion of AM in long-term liquid culture [2]: several months
BrdU incorporation in response to GM-CSF [3]: incorprorated BrdU
